The target of this test is SARS-CoV-2 wildtype spike antigen of the SPR column (construct not stated) (SARS-CoV-2). Nature of the test: SPR. For orientation: Surface plasmon resonance follows binding to a sensor surface in real time, without labels.

B1: YB9-258 (antibody, V domains shown)
VH: EVQLVESGGGLIQPGGSLRLSCAASGLTVSSNYMHWVRQAPGKGLEWVSVLYAGGSAFYADSVKGRFTISRNNSKNTLYLQMNSLRAEDTAIYYCARGLGDYLDSWGQGTLVTVSS
VL: DIQMTQSPSSVSASVGDRVTITCRASQGIGSWLAWYQQKPGKAPQLLIYAASTLQSGVPPRFSGSGSGTDFTLTITSLQPEDFASYYCQQANSVLALTFGGGTKVEIK
For orientation: Kd means the free concentration of one partner at which half of the binding sites on the other are occupied at equilibrium, for simple one-to-one binding. A low value points to higher affinity. With B1, the dissociation constant Kd is 180 pM.
